The target in data set [1] is bacteriophage Sf6 gp26-like tail needle (bacteriophage Sf6). The data set is described as follows: SDS-PAGE.
For data set [2] the target is unchanged. Nature of the data set: AUC.
Data set [3] deals with phage HS1 gp26-like tail needle (prophage HS1 of E. coli strain HS). The data set is described as follows: SDS-PAGE.
The target is the same in data set [4]. The data set is described as follows: AUC.
For data set [5], the target named is bacteriophage HK620 gp26-like tail needle (bacteriophage HK620). Nature of the data set: SDS-PAGE.
For data set [6] the target is unchanged. The data set is described as follows: AUC.
The data set “AUC” concerns the molecule itself. The data set is described as follows: AUC.

The stoichiometry N is the number of molecules, sites or subunits per partner or assembly. Regarding “bacteriophage Sf6 gp26-like tail needle (natural protein)”, the stoichiometry N in data set [1] and in data set [2] was 3 throughout.

Turning to “phage HS1 gp26-like tail needle (natural protein)”, the stoichiometry N in data set [3] and in data set [4] was 3 throughout.

“bacteriophage HK620 gp26-like tail needle (natural protein)”: the stoichiometry N in data set [5] and in data set [6] was 3 each time.

B1: bacteriophage P22 tail needle gp26 (natural protein, UniProt P35837 1-233, looked up)
chain: MADPSLNNPVVIQATRLDASILPRNVFSKSYLLYVIAQGTDVGAIAGKANEAGQGAYDAQVKNDEQDVELADHEARIKQLRIDVDDHESRITANTKAITALNVRVTTAEGEIASLQTNVSALDGRVTTAENNISALQADYVSKTATTSQSLASPLNVTTSYSVGGKKVLGARQTGWTAATGTANKGVFDADLTFAVSDTYTQSEIQAIANALITERRRTKALEDALRAHGLID
For B1, the “stoichiometry N” value in the data set “AUC” stood at 3.

Values taken from paper PMC2713385 (Journal of molecular biology, 2009).
